Data published in the DeepSol protein solubility set.

test: soluble on expression in E. coli; label from the status in PepcDB or PDB records

| Sequence | soluble on expression in E. coli |
| --- | --- |
| MQRVVVAIDAKRVDGEFMVFTHSGKKNTGILLRDWVVEVEKRGAGEILLTSIDRDGTKSGYDTEMIRFVRPLTTLPIIASGGAGKMEHFLEAFLAGADKALAASVFHFREIDMRELKEYLKKHGGSGQAVVVAIDAKRVDGEFMVFTHSGKKNTGILLRDWVVEVEKRGAGEILLTSIDRDGTKSGYDTEMIRFVRPLTTLPIIASGGAGKMEHFLEAFLAGADAALAASVFHFREIDMRELKEYLKKHGVNVRLEGLLEHHHHHH | soluble |
| MGPHSMRYFETAVSRPGLEEPRYISVGYVDNKEFVRFDSDAENPRYEPRAPWMEQEGPEYWERETQKAKGQEQWFRVSLRNLLGYYNQSAGGSHTLQQMSGCDLGSDWRLLRGYLQFAYEGRDYIALNEDLKTWTAADMAAQITRRKWEQSGAAEHYKAYLEGECVEWLHRYLKNGNATLLRTDSPKAHVTHHPRSKGEVTLRCWALGFYPADITLTWQLNGEELTQDMELVETRPAGDGTFQKWASVVVPLGKEQNYTCRVYHEGLPEPLTLRWEPPPST | soluble |
| MQGKNTIVTTGDYSIGLLSQTSGNLNTDTIIRVNSDGSVTPSFSDGDDTFIVTAGNHAVGVLACASPGSACACVSSLDEESTADTGSNENNAIAKLDMAKGEITTHGTESYAAYANGTVVKAGDTLDYTNASVTLTDVDITTHGDNAHAIAARQGTVSFNQGEIYTTGPDAAIAKIYNGGTVTLKNTSAVAHQGSGIVLESSINGQEATVDILSGSSLRSANEILYHKDETSNVTITDSEVSSAADVFINNIKGHLTVDATNSKITGSANISTDDNTHTYLSLSDNSTWDIKADSTVSNLTVDNSTVYISRADGRDVEPTRLTITENYVGNNGVLHLRTELDDDNSATDKVVINGNTSGTTRVKVTNAGGSGAYTLNGIEIISVEGESNGEFIKDSRIFAGAYEYSLTRGNTEATNKNWYLTNFQATSGGETNSGGSSAPTVAPTPVLRPEAGSYVANLAAANTLFVMRLNDRAGETRYIDPVTEQERSSRLWLRQIGGHNAWRDSNGQLRTTSHRYVSQLGGDLLTGGFTDSDSWRLGVMAGYARDYNLTHSSVSDYRSKGSVRGYSAGLYATWFADDISKKGAYIDSWAQYSWFKNSVKGDELAYESYSAKGATVSLEAGYGFALNKSFGLEAAKYTWIFQPQAQAIWMGVDHNAHTEANGSRIENDANNNIQTRLGFRTFIRTQEKNSGPHGDDFEPFVEMNWIHNSKDFAVSMNGVKVEQDGVSNLGEIKLGVNGNLNPAASVWGNVGVQLGDNGYNDTAVMVGLKYKF | not soluble |
| MGSDKIHHHHHHMHRAGDSCTRDRRSRTAWRAALFQPVRRQRPVSEQCVRCCSSNEQWLDVCRYGSGAQGVGGVRHGNCLSPFTFISRLRRSGMTTDTFGGDLPASTLVPQPSFCVQTRVAHDADEQARNLHGWSQTYDQLTAGCFVGGLTELCLDHMQLFVETTSHTLRQTCEVQKDAYWFGIPACAAGSGRIDAQVIAGDALAFRPGGIEFELLTSAGYEIFGVVVKGEVLRRYAAQVERVGLADPVPNTQVVPIGMARKAQLCATLRQLLDDGAARGTPLSSVARNNLQAAVLASLFDVGALPASEPVAMPARPRRQSIVSEARDYVLLNRDRAVSVPELCEQLHVSRRTLQYCFQDVLGMAPATYLRAIRLNGARRDLSNASRESRSVQDVAAAWGFWHLSQFATDYRKLFGMRPSETLKAATGTRVERAGAFNAVALAHH | not soluble |
| GPGSMYVLYCCTMQGYSQLSGSSSDENIVHPLSSDGNTVTISPTYTLRMHFLPQHQVAKGAEKNNQIELSVAPTDALIINFPEGTEGSETEVMEQLIGTGRWQWVVPMRPFDGYDSTRSYRLKARRFPVAAGDDSNELTPPTIVHVPNISSIIEAGMRVSNRSQSGLHRSRGGVVCFVVGADPSVVRVPEGKKLLEQLFSEVGRSTISTATLGLRQLHNANWALFISPCRTNKLFAWKERLPSSSVSSGSLWWLCAAADVLLEINTAAEWVTAHFD | not soluble |
| MSLKLVTFDLDDTLWDTAPAIAGAEVTLRDWLAEHAPKLGAIPVEHLWEIRSRLVAEDPSFKHRISALRRRVLFHALEDAGYDPDEAQDLADRGFEVFLHGRHQVQIFPEVQPMLEILAKTFTLGVITNGNADVRRLGLADYFAFALCAEDLGIGKPDPAPFVEALRRAKVDASAAVHVGDHPKDDIAGAQQAGMRAIWYNPQGKAWDADRLPDAEIHNLSQLPEVLARWAEGHHHHHH | soluble |
| MATEQHLRQQLAAAYRLAALFGWEDTLYTHFSVRLPGDGEPRFLINPFGMMFDEVTASNLIVVDMQGKVVAGDAPANSAGFTIHSAVHMAREDAHCVIHTHTLPGMAVAACEDGLLQLNQISTEFYQRVGYHPYEGVAFDLDERARIQRSLGNNIAMILQSHGLLSVGRTVADAFYIMYYLNRACEIQMATAQLAALSPIHTIAPHLSQHACEQLMGVEHERQQVWQAWLRRLDRLDTSYKD | not soluble |
| MSDRHFDELATRFAEKIYGGAKGAIRLAVLQADLAEALPERPLRVLDIGAGLGHMSLWLAARGHRVTLAEPAQPMLDGARQRFAEAGQAAEFIQAPWQELLGQLTEPYDLVLCHAVLEWLAEPHAILPVLHQLCAPGGWLSLAFYNRDALIYRNLLKGHFRKLRKERFAGEGQSLTPQRPLDPRELEQALAARWRIEARSGVRVFHDYMPSEFQAKAERLDLVEMELAYRRHPAFAGLGRYLHWLCRPQ | not soluble |
| MGENVLICLCGSVNSINISHYIIELKSKFDEVNVIASTNGRKFINGEILKQFCDNYYDEFEDPFLNHVDIANKHDKIIILPATSNTINKIANGICDNLLLTICHTAFEKLSIFPNMNLRMWENPVTQNNIRLLKDYGVSIYPANISESYELASKTFKKNVVAPEPYKVLEFI | not soluble |
| MSLAIQNPYTAYQQNSVNTATPGELTLMLYNGCLKFIRLAAQAIENDDMERKNENLIKAQNIIQELNFTLNRNIELSASMGAMYDYMYRRLVQANIKNDTGMLAEVEGYVTDFRDAWKQAIQSERKDRHGSGGIAEGGSHHHHHH | soluble |
| MMGVKAEALTGGFSSAVFDSQRIFKKLMDGMARPGTPQTIETAVAPPLPLAAATGAVLLALCDHDTPVWLNGALRKTAVPGWIGFHTGAPATEEKGAAHFAVIEAGSAIASFGLFAQGSQEYPDRSTTLIIELSDLDGGRELLLSGPGIRHVNIISPSGLPDIFPMLWAENNAIFPRGVDVILTAGDKFVCLPRTTRIKPVEA | not soluble |
| MDDQGGTRPDLLSLKPTAVPRLPLVLLARSRLVAKLDDTADTVLICAPAGYGKTLLLSQWLEDQAHKVAWLSPNQHNREALWPAMLQALRRSPAIPPGALRQFSGDEEDAVEVLGDLAQELASTGTSVRLVIDGVDGFSSDERERWIPALLNQSGPPIQLALVARDSTAVDAGPARLSGRIVELRSSDLAFSLEEINVLAAKTTTL | not soluble |
| MGSDKIHHHHHHDLDGAITTPAAVELALNGIYYSLPGNGFNVIFPTVSGSFKAGTMWRQEIVSAGNAVYYSERMLPTLSFSDATEWDADYAVIKNANFLETACNRMSDGEFSGNRRAEVLGEIAYLRALAYFNILVRYCEFWDMNSEYGVVMRNEAPSVSNALKARSSVADSYQYILDQLEIAIEKAPDWKKLSQASKEAAKALKARVLLYAGKYTEAVAAVNDAIDTNSPLPEANYGDVFDKFSTTKEILFARVFDQKDATNTSTRQQCYGNSPTKKQGYWGPTNEYVELVGDDPRADAIFSKVDSLMDSRSSAVAYNLKSVKKLLNDANDMPVIFSRVSELYLIKAEALYRSGASISEAYAPIRKLRERAGAEIILPANNEELETAIFNEWMLELSFENWHEWFAMIRFAGYTEKPDFTRLLALNKTLREALEKEYEKSEAQGDNYYQRIIDRRIDAIPSSEISSNLECKQNPGY | not soluble |
| MGSDKIHHHHHHMRILALVPGGIGDQILFFPTVADLKKYYPQAQIDVVVEPRAVGAYRVCAEVDQVFPFDFKDRNSLADWGNLLGSIREREYEAVLSLGQRSLVGLFLWLTGIPKRVGYAGRGKIFLTDAVPLNREQYAGALYHDLLQGFGINTPCPNPKLTLARQDLDWATAEQQRLGLAGQGYLVLHGGSSTLAKLKGLQKVYPVEKWAIVLRSIREQRPSLPFVVVQGPDDAEFVAELRKSNLDFQVVQPPDIGKLAAIIAGADLMLCTDSAPMHLAVASGTRTIALFGPFEPAKLLPADDRFIGIKAQGVDVATIPPQEIIDRLFGR | not soluble |
| MVVSKMNKDAQMRAAINQKLIETGERERLKELLRAKLIECGWKDQLKAHCKEVIKEKGLEHVTVDDLVAEITPKGRALVPDSVKKELLQRIRTFLAQHASL | soluble |
